Experiment: yeast display, Sf9 membrane polyspecificity reagent, FACS + sequencing; frameworks hold sequencing errors
Summary of the method: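 Genes from sorted yeast were amplified by colony PCR, read by MiSeq 2 × 250 sequencing and filtered on CDR length. These cells carried a synthetic nanobody library in Saccharomyces cerevisiae BJ5465 and were sorted by FACS into low and high (top ~1%) gates on anti-HA and streptavidin fluorescence. Polyreactivity is labelled according to the gate of origin.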

Sequence | polyreactivity (PSR sort gate)
QVQLVESGGALVQAGGSLRLSCAASGIIFYDYAMGWYRPAPGKERELVAAITWTGSSTYYADSVKGRFTISRDNAKITVYRQMNCLKQEDTAVSYCAADYWEYSPYEDLTYDYWGQGTQVTVSS | high polyreactivity
QVQLVESGGALVQAGGSLRLSCAASGITFLYYAMGWYRQAPGKERELVAAISGGGASTYYADSVKGRFTISRDNAKNTVYLQMNSLKPEDTAVYYCAAGYRDFFRARFGYWGQGTQVTVSS | high polyreactivity
QVQLVESGGALVQAGGSLRLSCAASGITFWKYTMGWYRQAPGKERELVASIRIGGSTYYADSVKGRFTISRDNAKNTVYLQMNSLKPEDTAVYYCATDSRLWGQGTQVTVSS | high polyreactivity
QVQLVESGGALVQAGGSLRLSCAASGLIFYKYAMGWYRQAPGKERELVASISTGGGSTYYADSVKGRFTISRDNAKNTVYLQMNSLKPEDTAVYYCAARWWRRFRGSHSLYDYWGQGTLVTVSS | high polyreactivity
QVQLVESGGALVQAGGSLRLSCAASGRIFASNGMGWYRQAPGKEREFVAAINRSGGSTYYADSVKGRFTISRDNAKNTVYLQMNSLKPEDTAVYYCNKDYLYSYLWGWKVYSYDYWGQGTQVTVSS | low polyreactivity
QVQLVESGGALVQAGGSLRLSCAASGRIFIVYAMGWSRQAPGKERDLVAAITSSGGGTYYADSVKGRFTISRDNAKNTVYLQMNSLKQEDSAVFYCATRYPYRPGYEYWGQGTQVTVSS | low polyreactivity
QVQLVESGGALVQAGGSLRLSCAASGRTFWDYAMGWYREAPGKERELVAAITWGGGSTYYADSVKGRFTISRDNAKNTVYLQMNSLKPVDTAVYYCAAGRGRHTYNYWGQGTQVTVTS | low polyreactivity
QVQLVESGGALVQAGGSLRLSCAASGRTLGGYAMGWYRQAPGKERELVAAITRRGGTTYYADSVKGRFTISRDNAKNTVYLQMNSLKPEDTAVYYCAKYTVQYAISHYDYWGQGTQVTVSS | high polyreactivity
QVQLVESGGALVQAGGSLRLSCAASGSIFFSYAMGWYRQAPGKERELVAAISTSGGNTYYADSVKGRFTISRDNAKHTVYLQMNSLKPEDTAVYYCNDRGSYPPYRSYGYWGQGTQVTVSS | low polyreactivity
QVQLVESGGALVQAGGSLRLSCAASGSIFGLKDMRWYRPAPGKEREFVAAITWSGGSSTYYADSVKGRFTISRDNAKITVSLQMNSVKTEDTAVYYCAADDRTLPADVDYWGQGTQVTVSS | high polyreactivity
QVQLVESGGALVQAGGSLRLSCAASGSIFWPNAMGWYRPAPGKERELVAAISWGTGSTYYADSVKGRFTISRDNAKNTVYLQMNSLKPEDTAVYYCAADGAYLDPYYDYWGQGTQVTVSS | low polyreactivity
QVQLVESGGALVQAGGSLRLSCAASGSISWKNAMGWYRKAPGKERELVAAISSTVTYYADSVKGRFTISRDNAKNTVYLQMNRLKPADTAVYYCAAEYLAYTTLYTGDYWGQGTQVTVSS | low polyreactivity
QVQLVESGGALVQAGGSLRLSCAASGSTFVYYAMGWYRQAPGKERELVAAISRSGTSTYYADSVKGRFTISRDNAKNTVYLQMNSLKPEDTAVYYCNARKKQGYDYWGQGTQVTVSS | high polyreactivity
QVQLVESGGALVQAGGSLRLSCAASGSTFVYYAMRWYRQTPGKERELVAAIRSDASTNYADSVKGRFTISRDNAKNTVYLQMNILKPEDTAVYYCNTAQLVSDEFDYWGQGTQVTVSS | low polyreactivity
QVQLVESGGALVQAGGSLRLSCAASGYTSILYAMGWYRQAPGKEMELVASITKSGDDTYYADSVKGRFTISRDNAKNTVYLQMNSLKPEDTAVYYCAAEYTYGDYSYVWYDYWGQGTQVTVSS | high polyreactivity
QVQLVESGGALVQAGGSLRLSCAASRITFTDNAMGWYRQAPGKERELVAAISSGASTYYADSVKGRFTISRDNAKNTVYLQMNSLKPEDSAVYYCATRQTYNYPWHYRYYYWGQGTQVTVSS | high polyreactivity
QVQLVESGGALVQAGGSLRLSCAPSGLTFSDYAMGWYRQAPGKEREFVAGISSGGSTYYADSVKGRFTISRDNAKNTVYFQMKSLKPEDTAVYFCAGTRYNSWPIKFDYWGQGTQVTVSS | high polyreactivity
QVQLVESGGALVQAGGSLRLSLADSGMTFSQNAMGWYRQAPGKERELVAAISSSGTSTYYADSVKGRFTISRDNAKNTVYLQMNSLKPEDTAVYYCNAPPGTFQWQGHSDYWGQGTQVTVSS | low polyreactivity
QVQLVESGGALVQAGRSLRLSCAASGRTFWVYAMGWYRQAPGKERELVAAIRWSAGTTYYADSVKGRFTISRDNAKNTVYLQMNSLKPEDTAVYYCAKRRYTAISYGYWGQGTKVTVSS | high polyreactivity
QVQLVESGGALVQARGSLRLSCAASGRTFVWYAMGWYRQAPGKERELVAAITLSGGSTYYADSVKGRFTISRDNAKNTVYLQMTSLKPEDTAVYYCAADGTYRPEDYDYWGQGTKVTVSS | low polyreactivity
QVQLVESGGCIVQAGGSLRLSCAASGRICYTNAMVWYRQAPGKERELVAVISWGGDTTYYADSVKGRFTISRDNANNTVYLQMNSLKPEDTAGYYCNADWGPPYEIYDSWGQGTQVTVSS | low polyreactivity

Sequence | polyreactivity (PSR sort gate)
QVQLVESGGCIVQAGGSLRLSCSASGLLFYINPMGWYRQAPGKEREFVAGINRNGGSTYYADSVKGRFTISRDNALYSVYLQMNSLKPEDTAVYYCNADQYWDRYFSWGQGTQGTVSS | low polyreactivity
QVQLVESGGCLFQAGGSLRLSCAASGFIFGHNAMGWYRQAPGTERELVAAITWSGGRTYYADSVKGRFTISRDNAKNTVYLQMISLKPEDKAVDYCNRRGRWRKYDYWGQGTQVTVSS | high polyreactivity
QVQLVESGGCLLQAGGSLRLSCAASGYTFGKNAMGWYRPAPGKERELVARIRTNGGTTYYADSVKGRFTISRDIAKYTVYLQMYSLKPEDTAVDYCNAYRGYEYDYWGQGTHVTVSS | low polyreactivity
QVQLVESGGCLVHAGGSLRLSCAAYGSILKYNAIGWYIQAPGKERELVAAITSRGGSTYYADSVKGRFTISRDNAKNTVYLQMNSLKPEDTAVYYCNRVYLGYFRYDYWGQGTQVTVSS | high polyreactivity
QVQLVESGGCLVHAGGSLRVSSAASGITFILNAMGWYRQAHGKEREFVAAISTYRGNTYYADSVKGRFTISRDNVKNTFYLEMYSLKPEDTAVYYSNADLYFRQGDVDLLRYVYWVQGTQVTVSS | low polyreactivity
QVQLVESGGCLVKAGGSLRLSCAASGRIFLTNAIGWYRQAPGKESELVADISRAGSTYADSVKGRFTISRDNAKNTVYLQMNSLKPEDTAVYYCSADEYSPGDSRTRYDYWGQGTQVTVSS | low polyreactivity
QVQLVESGGCLVQAAGRLRLSSAASGSTFYGYAMGWYRQAPGKERQLVAAITVRGGSTYYADSVKGRFTISRDNAKNTVYLQMYSLKPEDTAVYYCNAYIVSGFYVYDYWGQGTQVTVSS | high polyreactivity
QVQLVESGGCLVQAGCSLRLSCAASGGTFDVNAMGWYRQAPGKERELVAAITWSGGNTYYADSVKGRFTISRDNAKNTVYLQMNSLKPEDTAVYYCATDFSPVYYTRYDYWGQGTQVTVSS | low polyreactivity
QVQLVESGGCLVQAGCSLRLSCAASGRIFSTYAMGWYRQAPGTERELVAAINKIGGSTYFADSVKGRFTISRDNAKNTVYLQMNSLKPEDTAVYYCAADAPYYPVRRYYYWGQGTQVTVSS | low polyreactivity
QVQLVESGGCLVQAGGRLRISSAASGSIFAINDIGWYRQAPGKERELVAAIRSGGRTYYADSVKGRFTISRDNAKNTVYLQMNSLKPEYTAVYYCNAGGKWIGSDNWGQGTQVTVSS | high polyreactivity
QVQLVESGGCLVQAGGRLRLSCAASGFIFHGYAMGWYRPAPGKERELVAAISSRGGTTYYADSVQGRFTISRDKAKTTVYLQMNSLKPEDSAVDDCAADKIRYITSPVPFYYWGQGTQVTVSS | high polyreactivity
QVQLVESGGCLVQAGGRLRLSSAASGGTFTFYAMGWYRQAPGKERELVATINWSGGSTYYADSVKGRFTISRDNAKNTVYLQMNSLKPEDTAVYYCNAAWPYKSVEYWGQGTQVTVSS | low polyreactivity
QVQLVESGGCLVQAGGSLRFSCAASGSTFGWYAMGWYRHAPGKERELVAAITSVGSTYYADYVKGRFRISRDNAKNTVYLQMNSLKPEDTAVYYCAKRFGSGWAWFGYWGQGTQVTVSS | low polyreactivity
QVQLVESGGCLVQAGGSLRLICAASGIILTQNAMGWYRQAPGKERELVAAITESGARTYYADSVKGRFTISRDNAKNTVYLQMNSLKPEDTAVYYCAAHTRTSGHNYWGQGTQVTVSS | low polyreactivity
QVQLVESGGCLVQAGGSLRLIRDASGFIIRPYAMGWYRQAPGKEREFVAAITGGGSTYYADSVKGRFTISRDNAKNTVYLQMNSLKPEDTAVYYCNADRRRRSGGFAGWHFQRKDYWGQGTQVTVSS | low polyreactivity
QVQLVESGGCLVQAGGSLRLNCAASGGTFVNNDMGWYRQAPGKERELVAAIRSAGTTYYADSVKGRFTISRDNAKNSVYLQMNSLKPVDTAVYYCNADTTGYWSYGFQYYGEDYWGQGTQVTVSS | low polyreactivity
QVQLVESGGCLVQAGGSLRLSCAASGFTFGRNYMGWYRQAPGKEREFVASISGSGGRTYYADSVKGRFTISRDNAKNTVYLQMNSLQPEDTAVYYCAAYRYSAYLYWDEYGGQGTQVTVSS | high polyreactivity
QVQLVESGGCLVQAGGSLRLSCAASGFTFSSNAMGWYRQAPGKERELVAAISFNSTSTYYADSVKGRFTISRDNAKNTVYLQMNSLKPEDTAVYYCAADVPRVQSEPEYDYWGQGTQVTVSS | low polyreactivity
QVQLVESGGCLVQAGGSLRLSCAASGFTFTKYAMGWYRQAPGQERELVAAINRSGRTYYADSVKGRFTISRDNAKNTVYLQMNSLKPEDTAVYYCAADTRYQYSAYDYWGQGTQVTVSS | high polyreactivity
QVQLVESGGCLVQAGGSLRLSCAASGIIFGRYTMGWYRQAPGKERELVAAITSSGITYYADSVKGRVTISRDNAKNTVYLQMNSLKPEDTAVYYCNADYSSPGYYWPYDYWGQGTQVSVSS | low polyreactivity

Source: the nanobody polyreactivity screen of Harvey et al. (2022)
